How the values were obtained:
[1] = target: WT cortactin stably expressed in MTLn3 cells (endogenous cortactin knocked down) (rat); assay: FRET or BRET
[2] = target: endogenous cortactin of MTLn3 cells (rat (endogenous in MTLn3)) (UniProt Q66HL2); assay: FRET or BRET

Chain of WT cortactin stably expressed in MTLn3 cells (endogenous cortactin knocked down) (rat) (Q66HL2 whole entry): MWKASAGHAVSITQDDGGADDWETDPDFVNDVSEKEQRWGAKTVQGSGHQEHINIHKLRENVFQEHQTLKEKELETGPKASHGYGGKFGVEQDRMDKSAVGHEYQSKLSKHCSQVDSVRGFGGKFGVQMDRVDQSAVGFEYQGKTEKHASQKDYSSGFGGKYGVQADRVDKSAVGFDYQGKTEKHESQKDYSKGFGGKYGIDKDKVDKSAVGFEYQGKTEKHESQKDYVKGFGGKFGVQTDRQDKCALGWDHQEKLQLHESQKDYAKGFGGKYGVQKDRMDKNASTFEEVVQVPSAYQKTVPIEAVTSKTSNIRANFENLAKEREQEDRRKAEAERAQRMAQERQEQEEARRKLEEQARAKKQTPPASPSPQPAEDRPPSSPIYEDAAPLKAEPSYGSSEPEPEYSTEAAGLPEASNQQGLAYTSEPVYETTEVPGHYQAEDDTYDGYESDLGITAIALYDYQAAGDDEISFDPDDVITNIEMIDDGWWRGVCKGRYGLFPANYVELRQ

**Q.** With “endogenous cofilin of MTLn3 cells (from UniProt P45592 1-166) (natural protein)” as the substance, how does the FRET efficiency [1] read?
**A.** The FRET efficiency was 4.2%.

**Q.** And the FRET efficiency [2]?
**A.** The FRET efficiency was 11.8%.
